# Results published in patent publication US20260250338A1 (Molecular Partners, published 2026).
# Tests used:
# [1] = molecular target: T1, CD16aV allotype of human CD16a expressed on Jurkat-Lucia-NFAT-CD16 Reporter cells (InvivoGen) (human, UniProt P08637 17-254); experiment: cell-based or functional assay
# [2] = molecular target: T2, full length human CD16b stably expressed on transduced WT Jurkat cells (human, UniProt O75015 17-200); experiment: flow cytometry on Jurkat cells expressing CD16b, conditions as in Example 2
# T2 construct: whole, on cells; also called CD16b expressing cells; Jurkat CD16b
# [3] = molecular target: T1, CD16aV allotype of human CD16a …; experiment: flow cytometry on Jurkat cells expressing CD16aV, conditions as in Example 2
# T1 sequence (P08637 17-254 F176V): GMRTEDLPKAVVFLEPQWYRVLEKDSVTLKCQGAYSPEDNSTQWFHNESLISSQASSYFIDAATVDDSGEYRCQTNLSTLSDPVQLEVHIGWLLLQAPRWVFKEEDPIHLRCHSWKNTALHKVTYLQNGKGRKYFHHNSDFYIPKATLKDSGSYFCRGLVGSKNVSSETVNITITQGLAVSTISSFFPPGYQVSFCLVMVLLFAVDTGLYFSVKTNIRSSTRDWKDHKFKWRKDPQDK
# T2 sequence (O75015 17-200): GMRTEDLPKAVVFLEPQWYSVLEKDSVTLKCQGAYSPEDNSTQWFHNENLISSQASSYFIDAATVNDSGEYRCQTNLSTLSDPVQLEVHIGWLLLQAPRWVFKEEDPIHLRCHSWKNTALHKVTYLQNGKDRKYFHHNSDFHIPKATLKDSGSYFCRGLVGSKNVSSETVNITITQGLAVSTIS
binder,measurement,setting,value
"Construct 25 (SEQ ID NO: 94), CD117 × CD16a, CD117 binder SEQ ID NO: 84 N-terminal of DARPin #7 (designed binder, Bispecific DARPin; also called Construct No. 25) MRGSHHHHHHGSDLGQKLLKAAQYGQDDEVRILLAAGADVNAKDWAGKTPLHVAAEAGHLEIVEVLLKAGADVNAKDKAGETPLHLAAEQGHLEIVEVLLKAGADVNAQDEWGQTPADLAAYYGLEDIAEVLQKAAGSPTPTPTTPTPTPTTPTPTPTGSDLGQKLLRAAKKGQDDEVRELLKAGADVNAKDEQGWTPLHNAAWKGHLEIVEVLLKAGADVNAKDVFDWTPLHVAAHFGHLEIVEVLLKAGADVNAQDRAGETPADLAAQAGHEDIAEVLQKAA","EC50 (pM), DDCC reporter assay (luminescence), Kasumi-1 target cells, E:T 1:1, 24 h",[1],59.5 pM
same,"Top (RLU), DDCC reporter assay (luminescence), Kasumi-1 target cells",[1],36400 RLU
same,binding result,[2],no binding
same,EC50,[3],25.3 nM
